According to the supplement of paper PMC9170038:

These sequences were tested on K4 kissing-loop RNA reporter (assay: apparent KD of K4 kissing-loop reporter; higher = weaker reporter binding). Settings: Eterna round: R107; input ligand: theophylline 20 uM.
Description: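 RNA-MaP round R107: designed RNA switches with theophylline, tryptophan, arginine or FMN aptamers are transcribed on-chip within common flanks. They are titrated with a labelled K4 kissing-loop RNA reporter in RNA-MaP buffer (100 mM Tris pH 7.5, 80 mM KCl, 4 mM MgCl2), without ligand or with the indicated ligand. Median apparent KD per design.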
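Also: bound reporter read as fluorescence of individual clusters on recovered sequencing chips by microscopy, with normalized cluster intensities fitted with a binding model.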

| Sequence | apparent KD of K4 kissing-loop reporter |
| --- | --- |
| CUUAGGUCAGUUACCCGAGUGAUGUUCUGUCGAGGACCGGUACGGCCGCCACUCGCUCAUUAUCGGUCUGACAAAGAGCUGGCUU [theeternabot_exclusion_KL_Trp_A_9] | 136 nM |
| UUAUAUAUAUCAGAUACCAGCAUAAUGGAAACAAAUUAUGUUAUGAGUGAUGUUCAUGUAUGCCCUUGGCAGCUGGUAUGGGUUU [KL-XTheo-B19] | 487 nM |
| GUUUGCCGGUCCCGGAGUGAUGUUCCGGAUACCAGCAACUUCCUUUGCCCUUGGCAGCCGUAGCUAUACCGGGUGGCAGCUUCAG [Anresoenus] | 110 nM |
| GCAGUGAUGUUGCACGAGUAGGCUAGAGUACGAGGACCGGUACGGCCGCCACUCGUACGGAAGUCGCUAAUUUAUGGAAUGGUGA [#05 K4 Tryptophan A Same State] | 455 nM |
| CGCCAGGGUGAAGGAUAUCCGUCUGAUUGAGCGCAGUGAUGUUGCGCGAUUCGUUCAUCGCUCGGAGGAGAAGGUCAGAUAACUC [theeternabot_sameState_KL_FMN_B_3] | 121 nM |
| GGCAGUGAUGUUGCCAGUGGCAGAUGCGAAGGAGCGUGGUGAGACACAGGUAGGUCGCGCAUUGAAAUUGCUGUCACUAAAAUGC [#3] | 369 nM |
| GCCGUAGAUUGAAGGAGCGGGCCGUAGUGAUGUUACGCCAAUUUAUCUUUUCUUGAUGUGGCCCAGGUAGGUCGCAAUCUACGGC | 207 nM |
| CUUGAUCGAGGAAGGAGCGGGCCGUCAUUGAGCGCAGUGAUGUUGCGUUCGACUAGUCGAGCCCAGGUAGGUCGCCUGGAGUAAG [Lazalaa] | 78.2 nM |
| UCGUUAAAAGCGGCCGCCACUGCCAGAGCUCUGGAAAAGGCUGGAGUGAUGUUCUGCCUAGUAGACAGGACCGGGCUAUUGGAUU [theeternabot_sameState_KL_Trp_B_29] | 588 nM |
| UGUCAUUGGUCUGAUACCAGUUGAUGACGAAUACGUCAACUGGAGUGAUGUUCCAAUAACAACCCUUGGCAGCAGACCGAUGACU [MAT - Same State Theophlline B - Mod of Eli - D3] | 953 nM |
| UGAUACCAGACGGCCGCCACUCCUGCAGUCAAAAGACUGCUAAAGGAAAUCGUCCAGUGAUGUUGGAGGACCGGGUCUGGUAUCU [TrypBX 16 #SwitchBubble #Palindromic #StaticStem] | 991 nM |

Same assay, conditions: Eterna round: R107; input ligand: tryptophan 2.4 mM

| Sequence | apparent KD of K4 kissing-loop reporter |
| --- | --- |
| UGAUACCAGACUGAUACCAGCAAGUGAUGUUUGUUGAUCAAAAGCAGUCAAAGACUGCUUUGCCCUUGGCAGCAGUCUGGUAUCU [#10 K4 Theophylline B Exclusion] | 141 nM |
| GGUAGCAUGGCGGCCGCCACUUACACCACGGCCCUUCUAGUGAUGUUAGAGUGGAUUAUUCCGUUAAGGACCGGGCCAUGCUACC | 273 nM |
| UUUCCAGAUAAGUGGGAACGCUCCAUAACAGAGGAUAUCAGAGCGCUGAGAAGGCUGUUUUACAGUGAUGUUGUAAGUGUGGAGC [#10 K4 FMN A Same State] | 252 nM |
| AGAGUUAUGAGAGGAUAUGCGGCUAGUACUCAAAGAGUACUAGCAGCAGAGUGAUGUUCUGUGAAAGCAGAAGGUUCAUAACUCA [#06 K4 FMN B Same State] | 641 nM |
| GAGGUAUGCGCAGUGAUGUUGCGACGAGAUACCAGUCGUUCUGUCGACCCUUGGCAGCUCCCACCAGACGUACGAGUUUGUGUUG [theeternabot_sameState_KL_Theo_A_10] | 99.5 nM |
| ACACUUUACGUAGGAUAUGCGACGAGUGAUGUUCGUCAGGCGGCUUGAGCUUAAACAGGCCGUCUAGCAGAAGGACGGGCAGUGU [Diorsodi] | 168 nM |
| AAUUUUAAUAAUAAAUAAUAAAUAAAUGAUACCAGUAUUUUUUUUUACCCUUGGCAGCGUAUAUAAGGGCAGUGAUGUUGUCAAA [whbob_SS_Theo_A_w58] | 169 nM |
| UGGGCCGCCUGAGGAUAUAGAGACGAGUGAUGUUCGUGGAUAAGAGCCAGUGAUGUUGGGUUAUUUCUAGAAGGCGGGCGAACUU [Exclusion FMN B GF9] | 131 nM |
| ACGUCCGGAUUGAUCGUGGGCAUGGUCGAUACCAGUAGUUUAAUCUACCCUUGGCAGCGACAUGAGUGAUGUUCAUGUGCGGUGA [#14 K4 Theophylline A Exclusion] | 200 nM |
| UGGAGUUGACGAAAAGUCAACUCCAGAGAAGGAGCGGACGAAAGUCCAGGUAGGUCGCUCACUACCAGUGAUGUUGGUACUAAAA | 181 nM |
| GCGGACAUUCGCAGUGAUGUUGCGACGGAAGGAGCGGAUGAAAAUCCAGGUAGGUCGCCGACAAAAUUAAUUUUAAUGUGUUCGC [#03 K4 Arginine A Same State] | 324 nM |
| UUAUAUAUAUCAGAUACCAGUAUAAUGGAAACAAAUUAUGUUAUGAGUGAUGUUCAUGUAUGCCCUUGGCAGCUGGUAUGGGUUU [KL-XTheo-B20] | 311 nM |
| AAUAAUAUACAAAGGCGAACGAAUAGGGAAGGAGCGCGAUAUAACGCAGGUAGGUCGCCCAUAUUUUUAGUGAUGUUAGAGAAUA [E. Arginine A Tesla 1] | 757 nM |
| AAAGUGUCAGCACGAGUGAUGUUCGACGAUACCAGCCUCGAUAGAGGCCCUUGGCAGCGUAAAAGUCAAGGGCUGGCACAUAAAA [#SwitchBubble 5 #K4Early] | 1440 nM |
| GGUAGCAUGGCGGCCGCCACUAUCCUUCAUGGUUGACAUUAAGGAUAGCAUAGUGAUGUUAUGAAUAGGACCGGGCCAUGCUACC | 149 nM |
| UUAGAGAUCUCAGGAUAUGAGUGAUGUUGAUAUCAAGAUCUGAGAUAGAAUUCUAUCUCAGAUCAAUCAGAAGGGAGAUCUCAUU [AK1.3 Exc FMN B] | 263 nM |
| AAAUUUGCUCAUGAUACCAGCCAGUGAUGUUGGUUGGUCCACCGUGUCCGAACAUUAAGCGGCCCUUGGCAGCAUGAUGCGCGUA [Ininveaen] | 112 nM |
| GUAUCGCUAGGAGGAUAUUUCAAUUCGCCUAUAAAUGGUGAUACGGAGUGAUGUUCCGAUUUACGGAAAGAAGGCCUAGUGAUAC [FMN B 8] | 282 nM |
| AGGGCACUGGCGGCCGCCACUUUUCGUGCGAACCAAAGCUAGUGAUGUUGGCUCCCUAGUUGCAAAAGGACCGGGCCGUUCAUCU [theeternabot_sameState_KL_Trp_B_37] | 211 nM |
| UUUUUAUGCAGUGAUGUUGCUAAUAUAACAGAGGAUAUGCAUUAAUGCAGAAGGCUGAAAUACUAUACUUUAAUAAAUUAAAUUU [JR_SSFMNA_Sub014] | 85 nM |
| GGACGCCGGUCGGCCGCCACUCACAGCAGUGAUGUUGCUGAGAAUGUAGCGGAGUGAUGUUCCGAGAGGACCGGGACUGCAGUUU [Same State Tryptophan B GF 9] | 210 nM |
| UCCUGCAGUCUGCCACGAAAGUGGAUUGAUACCAGAGUCGAAAGACUCCCUUGGCAGCGAGUGAUGUUCGAAGCAGGUAAAUAAA [MatMod 1 - Jieux - Exclusion - Theophylline A] | 130 nM |

| Sequence | apparent KD of K4 kissing-loop reporter |
| --- | --- |
| GCUAGCAAUGCAGGAUAUUAAAACGAGUGAUGUUCGGUACCGAGGAUGGGAAACCAUCCUCGGUAAUAAGAAGGGCAUUGCUAGC | 172 nM |
| CGGAGUCGCGGAAGGAGCGCUCGAUAGACAAGUUGAUCGUGCCGUGGUCGAGUGAUGUUCGAGCAGGUAGGUCGCCGUCGGUCCC [Cexeatedma] | 230 nM |
| CGUACGGUUUCUUUCUUUCCGUACGAGUGCCGAGGACCGGUACGGCCGCCACUCGCUACAGCCUAGUGAUGUUAGGCGAUUCUUU | 102 nM |
| CAUACGCAUGGAGGAUAUGAGAUUUCUCAUGUCAUUUAAUAUUCUCAGUGAUGUUGAGAUUUUGGCUCAGAAGGCCAUGUGUAUG [Ex FMN B 19] | 273 nM |
| GCUAUAGUGUUAGAUACCAGUAUCCUGCAAAGCCAUCAAAUGCAGUGAUGUUGCAUAAACUACCCUUGGCAGCUAAUUGGGCUCU [theeternabot_exclusion_KL_Theo_B_49] | 187 nM |
| AUGUCUUAUAAACUCAUGGUUUCGAUCGAUACCAGUAGCGAGAGUUACCCUUGGCAGCGACAUGAGUGAUGUUCAUGUACGAAGA [KL-XTheoA5] | 90 nM |
| AUUGUACAGGGAAGGAGCGUCGACCAGUGAUGUUGGAGUUAAAUACCAGUGAUGUUGGUUAGGCAGGUAGGUCGCCCUCAAGUAG [#10 K4 Arginine B Exclusion] | 118 nM |
| CCAAUCUUUUACGAUACCAGUCUAAUAUAUUUAAUCAAAACCCUCGCCGAGUGAUGUUCGGACCCUUGGCAGCGUUUGCGAGAGG [xssgstkmullin] | 424 nM |
| UGGAGUUGACGAAAAGUCAACUCCUGGGAAGGAGCGGACGAAAGUCCAGGUAGGUCGCUCACUACCAGUGAUGUUGGUACUUAAA | 206 nM |
| AAUUUAUUAACUGAUACCAGACUUUAUUAUUUGUAAAUUACUAGUGAUGUUAGUGUUUCUGUCCCUUGGCAGCAGUAUUUAUUAA [JR_SSTheophyB_Sub024] | 70.5 nM |
| CUUAGGUCAGUUACCCGAGUGAUGUUCUGUCGAGGACCGGUACGGCCGCCACUCGCUCAUUAUCGGUCUGACAAAGAGCUGGCUU [theeternabot_exclusion_KL_Trp_A_9] | 106 nM |
| UUAUAUAUAUCAGAUACCAGCAUAAUGGAAACAAAUUAUGUUAUGAGUGAUGUUCAUGUAUGCCCUUGGCAGCUGGUAUGGGUUU [KL-XTheo-B19] | 363 nM |
| GUUUGCCGGUCCCGGAGUGAUGUUCCGGAUACCAGCAACUUCCUUUGCCCUUGGCAGCCGUAGCUAUACCGGGUGGCAGCUUCAG [Anresoenus] | 111 nM |
| GCAGUGAUGUUGCACGAGUAGGCUAGAGUACGAGGACCGGUACGGCCGCCACUCGUACGGAAGUCGCUAAUUUAUGGAAUGGUGA [#05 K4 Tryptophan A Same State] | 435 nM |
| CGCCAGGGUGAAGGAUAUCCGUCUGAUUGAGCGCAGUGAUGUUGCGCGAUUCGUUCAUCGCUCGGAGGAGAAGGUCAGAUAACUC [theeternabot_sameState_KL_FMN_B_3] | 112 nM |
| GGCAGUGAUGUUGCCAGUGGCAGAUGCGAAGGAGCGUGGUGAGACACAGGUAGGUCGCGCAUUGAAAUUGCUGUCACUAAAAUGC [#3] | 261 nM |
| GCCGUAGAUUGAAGGAGCGGGCCGUAGUGAUGUUACGCCAAUUUAUCUUUUCUUGAUGUGGCCCAGGUAGGUCGCAAUCUACGGC | 193 nM |
| CUUGAUCGAGGAAGGAGCGGGCCGUCAUUGAGCGCAGUGAUGUUGCGUUCGACUAGUCGAGCCCAGGUAGGUCGCCUGGAGUAAG [Lazalaa] | 90.8 nM |
| UCGUUAAAAGCGGCCGCCACUGCCAGAGCUCUGGAAAAGGCUGGAGUGAUGUUCUGCCUAGUAGACAGGACCGGGCUAUUGGAUU [theeternabot_sameState_KL_Trp_B_29] | 594 nM |
| UGUCAUUGGUCUGAUACCAGUUGAUGACGAAUACGUCAACUGGAGUGAUGUUCCAAUAACAACCCUUGGCAGCAGACCGAUGACU [MAT - Same State Theophlline B - Mod of Eli - D3] | 563 nM |
| UGAUACCAGACGGCCGCCACUCCUGCAGUCAAAAGACUGCUAAAGGAAAUCGUCCAGUGAUGUUGGAGGACCGGGUCUGGUAUCU [TrypBX 16 #SwitchBubble #Palindromic #StaticStem] | 403 nM |
